Consider 1 molecule from patent US20200262927A1 (OXFORD BIOTHERAPEUTICS, published 2020).

The target in assay [1] is T1, Recombinant hCRTAM/Fc Chimera (R&D Systems, Catalogue 1695-CR) (human, UniProt O95727 18-286).
T1 construct: also called human recombinant hCRTAM/Fc chimera; Fc part of the bought chimera not given
T1 sequence: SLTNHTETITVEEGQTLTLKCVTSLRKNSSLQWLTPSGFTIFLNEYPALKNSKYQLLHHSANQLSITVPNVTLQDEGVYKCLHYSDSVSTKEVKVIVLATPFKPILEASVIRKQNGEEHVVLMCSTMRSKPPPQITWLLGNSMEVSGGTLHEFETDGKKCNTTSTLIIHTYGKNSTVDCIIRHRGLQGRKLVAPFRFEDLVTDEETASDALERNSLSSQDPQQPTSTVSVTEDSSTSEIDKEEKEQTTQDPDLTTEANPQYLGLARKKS
The assay is described as follows: Octet BLI, antibody captured on anti-human IgG Fc biosensors, hCRTAM/Fc chimera as analyte, global 1:1 fit. The procedure:
(§1) Anti-human IgG-Fc Capture (AHC) ForteBio biosensors were loaded with the test antibodies at a concentration of 1 μg/mL over 300 seconds.
(§2) The loaded biosensors were incubated with 5 concentrations of human recombinant hCRTAM/Fc chimera starting at 200 nM, which was serially diluted 1:3; a reference well contained kinetic buffer only (to correct for drift).
(§3) The data from all concentrations were fit using a global 1:1 curve fit for each sample. Where possible the kinetic association and dissociation rates and the KD values were determined.
Background: In BLI a coated tip is dipped into the sample, and binding shifts an interference pattern.

For assay [2], the target named is T1, Recombinant hCRTAM/Fc Chimera (R&D …). The assay is described as follows: Octet BLI, antibody captured on anti-human IgG Fc biosensors, hCRTAM/Fc chimera as analyte from 200 nM diluted 1:3, global 1:1 fit. How it is done: as §1, §2, §3

B1: humanised 5A11 antibody (antibody, V domains shown)
VH: EVQLVESGGGLVQPGGSLKLSCAASGFTFSDAAMYWVRQASGKGLEWVARIRTKTNNYAAHYVESVKGRFTVSRDDSKNTVYLQMNSLKTEDTAMYYCTSVPQGTQDYWGQGTLVTVSS
VL: SYELTQPSSVSVSPGQTARITCSGDVLSKRYAQWSQQKPGQAIVSVIYKDSERPSGIPERFSGSSSGTTATLTISGAQVEDEADYYCLSTYADDNLPVFGGGTKLTVL
notes: Captured on anti-human IgG Fc biosensors, so it carried a human IgG Fc; also called humanized antibody 5A11
As a reminder, the koff is the first-order rate constant of dissociation. Usually kon stands for the rate constant with which the complex forms. The term Kd denotes the constant that tells how readily two partners part at equilibrium. As for B1, in assay [1], the koff stood at 0.00011 s⁻¹ and the kon was found to be 249000 M⁻¹ s⁻¹. The Kd in assay [2] was 0.439 nM.
